Tests used:
[1] = Substrate profile on C2 to C10 alkanes (TTN normalized, MTN); type: biochemical; conditions: highest TTN in the alkane series
Procedure: Reactions on alkanes. Reactions with alkanes from pentane to decane were carried out at 3 mL-scale using 100 mM KPi pH 8.0 buffer containing 2% ethanol (to allow alkane solubilization) and purified protein. 2.5 mL KPi buffer were added with 60 μL of 90 mM alkane solution in ethanol (final conc.=1.8 mM), 150 μL enzyme solution at 1 μM (final conc.=50 nM), and 300 μL NADPH regeneration solution (100 units/mL isocitrate dehydrogenase, 70 mg/mL isocitrate, 1.5 mg/ml NADP^+). Vials were sealed and stirred for 24 hours at 4° C. 1 mL-aliquot of the reaction was removed, added with 10 μl internal standard (25 mM 1-bromohexane in ethanol), and extracted with 200 μl chloroform (30 sec vortexing, 1 min centrifugation at 10000 g). The organic phase was removed and analyzed by gas chromatography. Reactions with ethane, propane, and butane were carried out as described for longer alkanes with the only difference that alkane-saturated KPi buffer was used. […] Propane and butane reactions were analyzed by direct injection of reaction solution on the GC using 1-pentanol as internal standard. Ethane reaction products were functionalized (see below) and analyzed by GC using 1-butanol as internal standard. […]
TTNs for each variant-substrate pair were determined using standardized reaction conditions (identical enzyme and substrate concentration, incubation time, cofactor regeneration system) (Table 18). […]

[2] = palmitic acid; cited from earlier work
[3] = Activity on palmitate; type: biochemical
Procedure: To evaluate the fate of the enzyme's original function, P450PMO activity was tested on the long-chain fatty acids laurate and palmitate.

[4] = Halomethane reactions (formaldehyde, PFBHA, GC-ECD): iodomethane; type: biochemical; conditions: formaldehyde formation
Procedure: (§1) Halomethane reactions: Reactions with chloromethane, bromomethane, and iodomethane were carried out in 1 mL-scale using halomethane-saturated buffer (100 mM phosphate pH 8.0) and 50-500 nM purified protein. 900 μL buffer were added with protein, incubated for 15 seconds, and then added with 100 μL NADPH regeneration solution (100 units/mL IDH, 70 mg/mL isocitrate, 1.5 mg/ml NADP+). Solution were sealed and stirred for 30 minutes at 25° C. To reduce background levels of formaldehyde to a minimum, buffers were prepared using HPLC-grade water and autoclaved twice prior to use. Formaldehyde concentration in the reaction solutions was determined through derivatization with o-(2,3,4,5,6-pentafluorobenzyl)hydroxylamine hydrochloride (PFBHA) and gas chromatography. […] Organic phase was removed, diluted 1/100 v/v, and analyzed on a Shimadzu GC-17A gas chromatograph. […] Quantification was carried out using a calibration curve and solutions at known concentration of formaldehyde. […]
(§2) Along with activity on propane, P450PMO also hydroxylates ethane (TTN˜2,500), despite ethane's higher C—H bond energy (101.0 kcal mol^−1 versus 98.6 kcal mol^−1 for propane). […] Reactions with purified P450 variants and the halomethanes were analyzed for formaldehyde formation (FIG. 42). […] Activity on chloromethane was detected at lower levels (0.5-1% of propane activity) and in fewer P450 variants. […]

[5] = Halomethane reactions (formaldehyde, PFBHA, GC-ECD): bromomethane; type: biochemical
Procedure: as §1, §2

Row | Molecule | MTN (Maximal Turnover Number) [1] | hydroxylation at the ω-2 position [2] [%] | hydroxylated fatty acids formed [3] | iodomethane dehalogenase activity [4] | turnover rates, halomethane dehalogenase activities ([5]; CH3Cl, CH3Br, CH3I, estimated from 30 minute-reactions) | bromomethane dehalogenase activity ([5]; formaldehyde formation)
1 | Wild-type BM-3: wild-type cytochrome P450 BM-3 from Bacillus megaterium, SEQ ID NO:1 (protein, listed as Bacillus megaterium) TIKEMPQPKTFGELKNLPLLNTDKPVQALMKIADELGEIFKFEAPGRVTRYLSSQRLIKEACDESRFDKNLSQALKFVRDFAGDGLFTSWTHEKNWKKAHNILLPSFSQQAMKGYHAMMVDIAVQLVQKWERLNADEHIEVPEDMTRLTLDTIGLCGFNYRFNSFYRDQPHPFITSMVRALDEAMNKLQRANPDDPAYDENKRQFQEDIKVMNDLVDKIIADRKASGEQSDDLLTHMLNGKDPETGEPLDDENIRYQIITFLIAGHETTSGLLSFALYFLVKNPHVLQKAAEEAARVLVDPVPSYKQVKQLKYVGMVLNEALRLWPTAPAFSLYAKEDTVLGGEYPLEKGDELMVLIPQLHRDKTIWGDDVEEFRPERFENPSAIPQHAFKPFGNGQRACIGQQFALHEATLVLGMMLKHFDFEDHTNYELDIKETLTLKPEGFVVKAKSKKIPLGGIPSPSTEQSAKKVRKKAENAHNTPLLVLYGSNMGTAEGTARDLADIAMSKGFAPQVATLDSHAGNLPREGAVLIVTASYNGHPPDNAKQFVDWLDQASADEVKGVRYSVFGCGDKNWATTYQKVPAFIDETLAAKGAENIADRGEADASDDFEGTYEEWREHMWSDVAAYFNLDIENSEDNKSTLSLQFVDSAADMPLAKMHGAFSTNVVASKELQQPGSARSTRHLEIELPKEASYQEGDHLGVIPRNYEGIVNRVTARFGLDASQQIRLEAEEEKLAHLPLAKTVSVEELLQYVELQDPVTRTQLRAMAAKTVCPPHKVELEALLEKQAYKEQVLAKRLTMLELLEKYPACEMKFSEFIALLPSIRPRYYSISSSPRVDEKQASITVSVVSGEAWSGYGEYKGIASNYLAELQEGDTITCFISTPQSEFTLPKDPETPLIMVGPGTGVAPFRGFVQARKQLKEQGQSLGEAHLYFGCRSPHEDYLYQEELENAQSEGIITLHTAFSRMPNQPKTYVQHVMEQDGKKLIELLDQGAHFYICGDGSQMAPAVEATLMKSYADVHQVSEADARLWLQQLEEKGRYAKDVWAG | 150 | 48 |  |  |  | 
2 | P450PMO: P450 BM-3 variant, SEQ ID NO:125; 7-7 plus G443A and D698G; propane monooxygenase (protein, Mutant P450PMO protein sequence, 7-7 plus G443A and D698G; propane monooxygenase) TIKEMPQPKTFGELKNLPLLNTDKPVQALMKIADELGEIFKFEAPGCVTRYISSQRLIKEACDESRFDKNLSQELKFFRDFGGDGLFTSWTHEINWKKAHNILLPSFSQQAMKGYHAMMVDIAVQLVQKWERLNADEHIEVSEDMTRLTLDTIGLCGFNYRFNSFYRDQPHPFIISMVRALDEVMNKPQRANPDDPAYDENKRQCQEDIKVMNDLVDKIIADRKARGEQSDDLLTQMLNGKDPETGEPLDDGNISYQIITFLIAGHETTSGLLSFALYFLVKNPHVLQKVVEEAARVLVDPVPSYKQVKQLKYVGMVLNEALRLWPTFPAFSLYAKEDTVLGGEYPLEKGDEVMVLIPQLHRDKTVWGDDVEEFRPERFENPSAIPQHAFKPFGNGQRACIGQQFALHEATLVLGMMLKHFDFEDHTNYELDIKETLTLKPEAFVVKAKSKKIPLGGIPSPSTGQSAKKVRKKAENAHNTPLLVLYGSNMGTAEGTARDLADIAMSKGFAPQVATLDSHAGNLPREGAVLIVTASYNGHPPDNAKQFVDWLDQASADEVKGVRYSVFGCGDKNWATTYQKVPAFIDETLAAKGAENIADRGEADASDDFEGTYEEWREHMWSDVAAYFNLDIENSEDNKSTLSLQFVDSAADMPLAKMHGAFSTNVVASKELQQPGSARSTRHLEIELPKEASYQEGGHLGVIPRNYEGTVNRVTARFGLDASQQIRLEAEEEKLAHLPLAKTVSVEELLQYVELQDPVTRTQLRAMAAKTVCPPHKVELEALLEKQAYKEQVLAKRLTMLELLEKYPACEMKFSEFIALLPSIRPRYYSISSSPRVDEKQASITVSVVSGEAWSGYGEYKGIASNYLAELQEGDTITCFISTPQSEFTLPKDPETPLIMVGPGTGVAPFRGFVQARKQLKEQGQSLGEAHLYFGCRSPHEDYLYQEELENAQSEGIITLHTAFSRMPNQPKTYVQHVMEQDGKKLIELLDQGAHFYICGDGSQMAPAVEATLMKSYADVHQVSEADARLWLQQLEEKGRYAKDVWAG |  |  | no detectable amounts of hydroxylated fatty acids | could be detected | 0.5-5 min^−1 | 1-5 % of the propane activity
